“And” between values parts separate entries of the source, which are not always exact repeats. Equal values may be shown once.
What was measured:
Assay in all cases: SPR; biotinylated ADO or ADO mutant immobilised on a Biotin CAP chip (~2500-3000 RU), substrate peptide injected; Biacore T200, 4 °C; 20 mM HEPES pH 7.5, 500 mM NaCl, 10 mM DTT, 0.1% tween-20; 50 µL/minute; multi-cycle or single-cycle mode not given; each cell is one of three independent measurements
Settings in all cases: both partners purified
[1] = molecular target: T1, ADO-Y87A, N-terminally His-tagged and biotinylated (human, UniProt Q96SZ5 1-270, Y87A, biotin (biotinylated during expression))
T1 construct: 2-aminoethanethiol dioxygenase (ADO), human, UniProt Q96SZ5, full length, site-directed mutant; source: E. coli Rosetta2(DE3), purified (Ni-NTA, SEC); not shown: biotinylation tag (from the vector pQE80L-Navi), N-terminal, kept
T1 sequence (looked up): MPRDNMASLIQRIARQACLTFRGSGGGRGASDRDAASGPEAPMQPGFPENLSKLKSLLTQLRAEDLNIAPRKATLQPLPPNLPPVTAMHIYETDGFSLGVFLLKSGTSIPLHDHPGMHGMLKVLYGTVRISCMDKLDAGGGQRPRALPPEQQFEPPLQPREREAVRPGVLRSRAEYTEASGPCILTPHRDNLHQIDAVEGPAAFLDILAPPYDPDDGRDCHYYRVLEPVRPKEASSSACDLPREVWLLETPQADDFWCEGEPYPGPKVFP

[2] = molecular target: T2, ADO-D206E, N-terminally His-tagged and biotinylated (human, UniProt Q96SZ5 1-270, D206E, biotin (biotinylated during expression))
T2 construct: 2-aminoethanethiol dioxygenase (ADO), human, UniProt Q96SZ5, full length, site-directed mutant; source: E. coli Rosetta2(DE3), purified (Ni-NTA, SEC); not shown: biotinylation tag (from the vector pQE80L-Navi), N-terminal, kept
T2 sequence (looked up): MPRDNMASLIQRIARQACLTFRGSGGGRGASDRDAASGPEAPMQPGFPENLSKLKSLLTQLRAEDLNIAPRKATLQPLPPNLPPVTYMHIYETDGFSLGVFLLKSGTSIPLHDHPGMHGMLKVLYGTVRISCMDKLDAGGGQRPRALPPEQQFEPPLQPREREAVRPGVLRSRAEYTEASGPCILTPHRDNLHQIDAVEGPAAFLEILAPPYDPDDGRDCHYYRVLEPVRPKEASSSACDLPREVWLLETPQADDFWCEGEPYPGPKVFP

[3] = molecular target: T3, ADO-F256A, N-terminally His-tagged and biotinylated (human, UniProt Q96SZ5 1-270, F256A, biotin (biotinylated during expression))
T3 construct: 2-aminoethanethiol dioxygenase (ADO), human, UniProt Q96SZ5, full length, site-directed mutant; source: E. coli Rosetta2(DE3), purified (Ni-NTA, SEC); not shown: biotinylation tag (from the vector pQE80L-Navi), N-terminal, kept
T3 sequence (looked up): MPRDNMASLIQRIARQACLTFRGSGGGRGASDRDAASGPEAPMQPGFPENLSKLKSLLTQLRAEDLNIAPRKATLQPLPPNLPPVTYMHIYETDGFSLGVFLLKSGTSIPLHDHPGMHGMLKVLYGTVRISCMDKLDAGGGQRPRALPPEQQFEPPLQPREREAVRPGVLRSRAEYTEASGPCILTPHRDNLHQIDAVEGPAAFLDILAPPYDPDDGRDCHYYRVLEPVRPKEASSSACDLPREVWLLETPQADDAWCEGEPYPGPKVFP

[4] = molecular target: T4, ADO-Y87F, N-terminally His-tagged and biotinylated (human, UniProt Q96SZ5 1-270, Y87F, biotin (biotinylated during expression))
T4 construct: 2-aminoethanethiol dioxygenase (ADO), human, UniProt Q96SZ5, full length, site-directed mutant; source: E. coli Rosetta2(DE3), purified (Ni-NTA, SEC); not shown: biotinylation tag (from the vector pQE80L-Navi), N-terminal, kept
T4 sequence (looked up): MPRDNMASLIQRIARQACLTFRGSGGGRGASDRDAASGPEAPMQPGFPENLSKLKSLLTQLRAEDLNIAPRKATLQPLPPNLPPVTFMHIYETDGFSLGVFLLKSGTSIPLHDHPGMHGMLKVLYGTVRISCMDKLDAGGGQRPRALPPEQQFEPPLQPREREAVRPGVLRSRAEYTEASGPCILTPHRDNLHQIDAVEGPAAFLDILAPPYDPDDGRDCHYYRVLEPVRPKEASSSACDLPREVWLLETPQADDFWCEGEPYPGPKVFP

[5] = molecular target: T5, ADO-Y212F, N-terminally His-tagged and biotinylated (human, UniProt Q96SZ5 1-270, Y212F, biotin (biotinylated during expression))
T5 construct: 2-aminoethanethiol dioxygenase (ADO), human, UniProt Q96SZ5, full length, site-directed mutant; source: E. coli Rosetta2(DE3), purified (Ni-NTA, SEC); not shown: biotinylation tag (from the vector pQE80L-Navi), N-terminal, kept
T5 sequence (looked up): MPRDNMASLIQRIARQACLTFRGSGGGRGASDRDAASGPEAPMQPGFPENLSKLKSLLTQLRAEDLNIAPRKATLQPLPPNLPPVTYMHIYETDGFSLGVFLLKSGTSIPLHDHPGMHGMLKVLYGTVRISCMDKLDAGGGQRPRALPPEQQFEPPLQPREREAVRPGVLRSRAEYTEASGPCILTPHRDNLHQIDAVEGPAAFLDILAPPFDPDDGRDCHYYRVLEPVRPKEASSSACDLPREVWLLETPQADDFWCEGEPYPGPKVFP

- Kd [1]: 4.57 µM and 3.79 µM and 4.17 µM
- Kd [2]: 1.21 µM and 1.27 µM and 1.44 µM
- Kd [3]: 0.751 µM and 0.9 µM and 0.973 µM
- Kd [4]: 0.303 µM and 0.327 µM and 0.329 µM
- Kd [5]: 8.76 µM and 9.12 µM and 9.82 µM
B1: IL32(2-15), synthetic peptide corresponding to the methionine excised N-terminus of IL32, residues 2-15 (peptide, UniProt P24001 2-15, looked up)
peptide: CFPKVLSDDMKKLK
notes: interleukin 32 (IL32), residues 2-15 (N-terminal Cys exposed); also called 14-mer IL32; source: synthetic peptide

Source: article PMC12098869, “An mRNA-display derived cyclic peptide scaffold reveals the substrate binding interactions of an N-terminal cysteine oxidase” (Nature Communications, 2025)
